Measured values from US20220204583A1 (WISCONSIN ALUMNI RESEARCH FOUNDATION, published 2022).

Tests used:
Experiment in all cases: competition of live bEnd.3 (MBEC) cell surface binding by excess recombinant receptor ectodomain
[1] = biological target: T1, recombinant transferrin receptor ectodomain (UniProt Q62351 89-763, limits assumed)
T1 construct: extracellular domain; Bought; also called rTfR; TfR
Description: (§1) Competition assay. 2 μM recombinant receptor ecto-domain proteins, rIR (R&D systems, 7544-MR), rLDLR (R&D systems, 2255-LD), and rTfR (Sino Biologics, 50741-M07H) were incubated with 200 nM VLR-Fc proteins in serum-free complete growth media for 30 minutes and then applied to serum-starved bEnd.3 cells in 96-well plates to allow for VLR-Fc binding to cell surface receptors. Plates were incubated at 4° C. for 2 hours. After extensive washing with ice cold PBS cells were fixed with 2% PFA, permeabilized, labeled with IRDye reagents, and analyzed as described above.

[2] = biological target: T2, recombinant insulin receptor ectodomain (UniProt P15208 28-946, limits assumed)
T2 construct: extracellular domain; Bought; The chain make-up (alpha/beta) is not described; also called rIR; IR
T2 sequence (P15208 28-946 limits assumed): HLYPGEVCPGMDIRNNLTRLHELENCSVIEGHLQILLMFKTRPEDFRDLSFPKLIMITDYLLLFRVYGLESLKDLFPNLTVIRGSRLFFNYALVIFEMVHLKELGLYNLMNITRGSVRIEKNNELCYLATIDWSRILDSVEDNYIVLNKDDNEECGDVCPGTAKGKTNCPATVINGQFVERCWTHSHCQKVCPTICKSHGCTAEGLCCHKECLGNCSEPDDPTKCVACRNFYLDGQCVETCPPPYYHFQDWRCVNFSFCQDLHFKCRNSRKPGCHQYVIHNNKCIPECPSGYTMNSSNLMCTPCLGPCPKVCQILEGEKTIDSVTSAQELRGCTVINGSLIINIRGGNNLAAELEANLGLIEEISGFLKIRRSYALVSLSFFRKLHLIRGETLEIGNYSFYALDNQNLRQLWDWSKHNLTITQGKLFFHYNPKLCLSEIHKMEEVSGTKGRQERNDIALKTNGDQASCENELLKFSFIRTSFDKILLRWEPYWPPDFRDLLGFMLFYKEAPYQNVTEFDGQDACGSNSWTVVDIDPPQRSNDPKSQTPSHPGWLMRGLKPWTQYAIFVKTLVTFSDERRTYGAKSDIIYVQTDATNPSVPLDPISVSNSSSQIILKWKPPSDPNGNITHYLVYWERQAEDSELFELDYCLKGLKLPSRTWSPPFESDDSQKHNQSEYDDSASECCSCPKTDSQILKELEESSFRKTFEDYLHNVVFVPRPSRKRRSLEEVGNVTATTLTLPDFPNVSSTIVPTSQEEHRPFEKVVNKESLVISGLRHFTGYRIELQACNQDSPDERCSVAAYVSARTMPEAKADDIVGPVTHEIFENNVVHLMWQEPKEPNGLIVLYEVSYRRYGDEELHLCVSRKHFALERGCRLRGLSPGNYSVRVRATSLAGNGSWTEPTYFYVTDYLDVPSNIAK
Description: as §1

[3] = biological target: T3, recombinant low-density lipoprotein receptor ectodomain (UniProt P35951 22-790, limits assumed)
T3 construct: extracellular domain; Bought; also called rLDLR; LDLR
T3 sequence (P35951 22-790 limits assumed): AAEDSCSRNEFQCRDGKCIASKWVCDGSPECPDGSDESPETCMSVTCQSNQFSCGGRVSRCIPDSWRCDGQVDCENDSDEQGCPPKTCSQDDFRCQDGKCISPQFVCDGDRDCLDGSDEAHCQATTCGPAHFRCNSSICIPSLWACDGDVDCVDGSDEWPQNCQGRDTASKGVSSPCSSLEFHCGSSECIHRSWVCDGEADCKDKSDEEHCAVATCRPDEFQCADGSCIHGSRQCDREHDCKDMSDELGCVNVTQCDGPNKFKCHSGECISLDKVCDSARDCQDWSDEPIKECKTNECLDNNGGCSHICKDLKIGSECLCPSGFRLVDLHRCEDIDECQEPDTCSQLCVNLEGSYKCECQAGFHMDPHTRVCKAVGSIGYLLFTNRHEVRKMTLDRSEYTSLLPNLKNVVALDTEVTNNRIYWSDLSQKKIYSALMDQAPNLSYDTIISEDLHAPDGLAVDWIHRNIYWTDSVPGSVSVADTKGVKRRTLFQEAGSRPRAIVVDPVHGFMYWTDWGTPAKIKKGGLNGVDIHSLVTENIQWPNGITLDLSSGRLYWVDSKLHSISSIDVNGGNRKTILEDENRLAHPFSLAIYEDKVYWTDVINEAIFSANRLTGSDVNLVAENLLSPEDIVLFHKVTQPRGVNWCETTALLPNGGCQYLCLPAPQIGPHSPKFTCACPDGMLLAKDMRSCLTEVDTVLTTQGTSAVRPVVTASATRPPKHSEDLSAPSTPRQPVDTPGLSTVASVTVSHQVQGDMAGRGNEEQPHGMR
Description: as §1

T1 sequence (Q62351 89-763 limits assumed): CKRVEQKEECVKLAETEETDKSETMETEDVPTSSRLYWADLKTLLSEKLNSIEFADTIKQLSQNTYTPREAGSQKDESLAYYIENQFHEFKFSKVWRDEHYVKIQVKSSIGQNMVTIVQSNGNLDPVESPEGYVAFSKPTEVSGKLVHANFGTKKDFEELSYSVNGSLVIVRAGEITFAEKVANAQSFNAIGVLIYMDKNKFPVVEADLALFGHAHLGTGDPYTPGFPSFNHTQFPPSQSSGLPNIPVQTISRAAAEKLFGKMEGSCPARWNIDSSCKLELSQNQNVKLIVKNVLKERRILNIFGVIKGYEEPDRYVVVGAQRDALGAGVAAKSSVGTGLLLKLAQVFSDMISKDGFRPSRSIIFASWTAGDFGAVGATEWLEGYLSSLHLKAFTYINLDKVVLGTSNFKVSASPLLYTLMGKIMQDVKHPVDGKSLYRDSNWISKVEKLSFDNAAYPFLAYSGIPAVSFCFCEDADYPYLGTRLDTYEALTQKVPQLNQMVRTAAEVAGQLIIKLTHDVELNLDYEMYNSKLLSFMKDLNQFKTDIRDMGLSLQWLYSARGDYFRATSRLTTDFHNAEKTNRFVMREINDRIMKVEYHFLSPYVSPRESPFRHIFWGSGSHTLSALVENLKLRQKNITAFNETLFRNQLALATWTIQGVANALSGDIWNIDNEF

B1: VLR-Fc-46 (Fc fusion)
chain: ACPSQCSCSGTTVDCSGKSLASVPTGIPTTTRWLHLHRNQLTKLEPGVFDSLTQLTYLNLGGNQLTALPVGVFDKLTNLKELKLYSNQLQALSEGLFDRLGKLQHLDLSKNQLKSIPHGAFDRLSSLTHAYLFGNPWDCECRDIMYLRNWVADHTSIVMRWDGKAVNDPDSAKCAGTNTPVRAVTEASTSPSKCPGYVAT
notes: Dimeric recombinant VLR-rabbit IgG-Fc fusion secreted from HEK293F cells; also called VLR 46; VLR46; not shown: rabbit IgG-Fc from vector pIRES-VLR-Fc, C-terminal of the VLR
binding result [1]: no binding (tested: 2 µM receptor ectodomain, 200 nM VLR-Fc)
binding result [2]: no binding (tested: 2 µM receptor ectodomain, 200 nM VLR-Fc)
binding result [3]: no binding (tested: 2 µM receptor ectodomain, 200 nM VLR-Fc)

B2: VLR-Fc-11 (Fc fusion)
chain: ACPSQCSCSGTEVRCESRSLASVPAGIPTTTRRLHLHRNQLTKLEPGVFDSLTQLTYLNLGGNQLTALPVGVFDKLTNLKELKLYSNQLQALSEGLFDRLGKLQHLDLSKNQLKSIPHGAFDRLSSLTHAYLFGNPWDCECRDIMYLRNWVADHTSIVMRWDGKAVNDPDSAKCAGTNTPVRAVTEASTSPSKCPGYVAT
notes: Dimeric recombinant VLR-rabbit IgG-Fc fusion secreted from HEK293F cells; also called VLR 11; VLR11; not shown: rabbit IgG-Fc from vector pIRES-VLR-Fc, C-terminal of the VLR
binding result [1]: no binding (tested: 2 µM receptor ectodomain, 200 nM VLR-Fc)
binding result [2]: no binding (tested: 2 µM receptor ectodomain, 200 nM VLR-Fc)
binding result [3]: no binding (tested: 2 µM receptor ectodomain, 200 nM VLR-Fc)

B3: VLR-Fc-30 (Fc fusion)
chain: ACPSQCSCSGTTVDCSGKSLASVPTGIPTTTQILRLYRNQITKLEPGVFDSLTQLTYLNLGGNQLTALPVGVFDKLTNLKELKLYSNQLQALSEGLFDRLGKLQHLDLSKNQLKSIPHGAFDRLSSLTHAYLFGNPWDCECRDIMYLRNWVADHTSIVMRWDGKAVNDPDSAKCAGTNTPVRAVTEASTSPSKCPGYVAT
notes: Dimeric recombinant VLR-rabbit IgG-Fc fusion secreted from HEK293F cells; also called VLR 30; VLR30; not shown: rabbit IgG-Fc from vector pIRES-VLR-Fc, C-terminal of the VLR
binding result [1]: no binding (tested: 2 µM receptor ectodomain, 200 nM VLR-Fc)
binding result [2]: no binding (tested: 2 µM receptor ectodomain, 200 nM VLR-Fc)
binding result [3]: no binding (tested: 2 µM receptor ectodomain, 200 nM VLR-Fc)
